Measurements: article PMC6365968 (Cell, 2018)

T1: mouse LAG3-Ig (Fc-tagged mouse LAG3 extracellular domain fusion protein) (mouse, UniProt Q61790 24-442)
T1 sequence (looked up): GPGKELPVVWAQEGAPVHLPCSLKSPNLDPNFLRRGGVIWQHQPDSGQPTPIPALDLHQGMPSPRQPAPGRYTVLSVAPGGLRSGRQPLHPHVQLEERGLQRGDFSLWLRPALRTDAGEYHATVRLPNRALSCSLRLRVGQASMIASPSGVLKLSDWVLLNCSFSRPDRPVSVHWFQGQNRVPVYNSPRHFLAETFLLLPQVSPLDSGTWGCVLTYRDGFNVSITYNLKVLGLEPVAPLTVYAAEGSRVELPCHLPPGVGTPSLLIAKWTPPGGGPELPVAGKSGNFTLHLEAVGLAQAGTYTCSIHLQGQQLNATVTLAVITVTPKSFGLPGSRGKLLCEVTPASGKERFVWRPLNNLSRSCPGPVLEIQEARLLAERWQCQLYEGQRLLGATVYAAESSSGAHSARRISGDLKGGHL

T2: human LAG3-Ig (immunoglobulin Fc-tagged LAG3 extracellular domain fusion protein) (human, UniProt P18627 23-450)
T2 sequence (looked up): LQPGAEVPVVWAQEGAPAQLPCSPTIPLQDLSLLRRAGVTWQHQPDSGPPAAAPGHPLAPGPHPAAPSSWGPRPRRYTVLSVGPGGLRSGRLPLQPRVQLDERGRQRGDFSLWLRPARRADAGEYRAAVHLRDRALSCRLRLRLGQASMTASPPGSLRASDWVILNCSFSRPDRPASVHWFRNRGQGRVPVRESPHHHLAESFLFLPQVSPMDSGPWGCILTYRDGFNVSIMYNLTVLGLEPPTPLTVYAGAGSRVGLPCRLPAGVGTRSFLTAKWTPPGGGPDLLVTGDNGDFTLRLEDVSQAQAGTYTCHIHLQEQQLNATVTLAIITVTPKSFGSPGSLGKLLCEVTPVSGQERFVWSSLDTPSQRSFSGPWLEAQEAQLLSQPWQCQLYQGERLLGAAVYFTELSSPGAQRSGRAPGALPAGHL

B1: FLAG-tagged mouse FGL1 (ligand, UniProt Q71KU9 23-314, looked up)
chain: LESESCLREQVRLRAQVHQLETRVKQQQTMIAQLLHEKEVQFLDKGSENSFIDLGGKRQYADCSEIYNDGFKQSGFYKIKPLQSLAEFSVYCDMSDGGGWTVIQRRSDGSENFNRGWNDYENGFGNFVQNNGEYWLGNKNINLLTIQGDYTLKIDLTDFEKNSSFAQYQSFKVGDKKSFYELNIGEYSGTAGDSLSGTFHPEVQWWASHQRMKFSTWDRDNDNYQGNCAEEEQSGWWFNRCHSANLNGVYYRGSYRAETDNGVVWYTWHGWWYSLKSVVMKIRPSDFIPNII
B2: FLAG-tagged human FGL1 (ligand, UniProt Q08830 23-312, looked up)
chain: LEDCAQEQMRLRAQVRLLETRVKQQQVKIKQLLQENEVQFLDKGDENTVIDLGSKRQYADCSEIFNDGYKLSGFYKIKPLQSPAEFSVYCDMSDGGGWTVIQRRSDGSENFNRGWKDYENGFGNFVQKHGEYWLGNKNLHFLTTQEDYTLKIDLADFEKNSRYAQYKNFKVGDEKNFYELNIGEYSGTAGDSLAGNFHPEVQWWASHQRMKFSTWDRDHDNYEGNCAEEDQSGWWFNRCHSANLNGVYYSGPYTAKTDNGIVWYTWHGWWYSLKSVVMKIRPNDFIPNVI

How the values were obtained:
SEC-MALS = target: the molecule itself; experiment: SEC-MALS
[1] = target: T1, mouse LAG3-Ig (Fc-tagged mouse LAG3 …); experiment: BLI
[2] = target: T2, human LAG3-Ig (immunoglobulin Fc-tagged …); experiment: BLI

Binder | stoichiometry N (SEC-MALS) | Kd [1] [nM] | binding result [2]
B1 | 2 | ~1.5 | –
B2 | – | – | binds
